pEC50, pIC50: −log10 of the molar value.
What was measured:
[1] = molecular target: somatostatin receptors on AR42J cells (rat); test: apparent IC50, competition with 111In(DTPA-octreotide) on AR42J cells, 3 h at RT
[2] = molecular target: receptor for bombesin analogues (target not named where the EC50 values are printed) (UniProt P30550); test: assay and target not described at this place
[3] = molecular target: gastrin-releasing peptide receptor on PC-3 cells (UniProt P30550); test: competition with 125I-BBN on PC-3 cells, inhibitor 250 to 2 nM
gastrin-releasing peptide receptor on PC-3 cells, sequence (P30550 whole entry): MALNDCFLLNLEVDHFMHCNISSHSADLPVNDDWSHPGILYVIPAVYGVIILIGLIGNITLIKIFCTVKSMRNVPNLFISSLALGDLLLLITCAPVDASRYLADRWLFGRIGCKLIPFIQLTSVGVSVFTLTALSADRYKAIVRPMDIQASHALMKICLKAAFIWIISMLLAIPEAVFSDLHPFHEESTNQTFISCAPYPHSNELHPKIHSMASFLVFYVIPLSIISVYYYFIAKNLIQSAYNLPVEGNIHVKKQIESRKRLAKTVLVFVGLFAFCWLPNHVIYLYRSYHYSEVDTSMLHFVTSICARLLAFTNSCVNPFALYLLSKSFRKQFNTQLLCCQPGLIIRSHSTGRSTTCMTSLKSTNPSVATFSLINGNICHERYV

somatostatin receptors on AR42J cells (rat), sequence (P30680 whole entry): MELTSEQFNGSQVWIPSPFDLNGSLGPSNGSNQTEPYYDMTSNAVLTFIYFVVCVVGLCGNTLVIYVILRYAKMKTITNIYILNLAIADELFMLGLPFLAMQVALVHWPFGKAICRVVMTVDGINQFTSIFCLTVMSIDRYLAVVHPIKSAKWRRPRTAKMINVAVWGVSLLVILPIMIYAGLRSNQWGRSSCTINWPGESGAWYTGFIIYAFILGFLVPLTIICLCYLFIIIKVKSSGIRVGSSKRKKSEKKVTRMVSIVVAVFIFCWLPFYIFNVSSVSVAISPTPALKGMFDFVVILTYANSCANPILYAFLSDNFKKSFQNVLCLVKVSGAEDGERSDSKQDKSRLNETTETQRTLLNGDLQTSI
receptor for bombesin analogues (target not named where the EC50 values are printed), sequence (P30550 whole entry): as the sequence (P30550 whole entry) above

Row | Substance | pIC50 [1] | also measured
1 | ^125I-Bombesin (Perkin-Elmer) (peptide) |  | pEC50 [2]: 7.23
2 | commercially available BBN peptide (BBN positive control) |  | pIC50 [3]: 7.61
3 | Al^19F(IMP466), IMP466 = NOTA-D-Phe-Cys-Phe-D-Trp-Lys-Thr-Cys-Throl (peptide) | 8.44 | 

Now from value to substance, other results behind:

Row | pIC50 [1] | Substance | also measured
4 | 8.20 | ^115In(DTPA-octreotide) (peptide) | 
5 | 7.89 | ^69Ga(IMP466), IMP466 = NOTA-D-Phe-Cys-Phe-D-Trp-Lys-Thr-Cys-Throl (peptide) | 
